Measured values published in patent US20060051772A1 (LUDWIG INSTITUTE FOR CANCER RESEARCH, published 2006).

Target: HLA-DR molecule DRB1*0301 (human)
Experiment: cell-based or functional assay

peptide titration assay: recognition by SSX-4 31-50 reactive CD4+ T cells from LAU 331, efficiency against peptide SSX-4 31-50: 3 fold
Binder: WEKMKSSEKIVYVYM [peptide SSX-4 37-51]
